Data on seven substances can be found in patent publication US20070232789A1.

pKd: −log10 of the molar value.

The target of assay [1] is low-density lipoprotein receptor-related protein (LRP), purified (human) (UniProt Q07954). Description: SPR, BIAcore 3000, one-site model, KD = koff/kon. (In SPR one partner is held on a chip, and binding of the other changes the refractive index at the surface.)
Assay [2] deals with A1/A3-C1-C2 heterodimer of factor VIII, plasma-derived (human) (UniProt P00451). Kind of assay: cell-based or functional assay.
Chain of A1/A3-C1-C2 heterodimer of factor VIII, plasma-derived (human) (P00451 20-391, chain 1 of 2): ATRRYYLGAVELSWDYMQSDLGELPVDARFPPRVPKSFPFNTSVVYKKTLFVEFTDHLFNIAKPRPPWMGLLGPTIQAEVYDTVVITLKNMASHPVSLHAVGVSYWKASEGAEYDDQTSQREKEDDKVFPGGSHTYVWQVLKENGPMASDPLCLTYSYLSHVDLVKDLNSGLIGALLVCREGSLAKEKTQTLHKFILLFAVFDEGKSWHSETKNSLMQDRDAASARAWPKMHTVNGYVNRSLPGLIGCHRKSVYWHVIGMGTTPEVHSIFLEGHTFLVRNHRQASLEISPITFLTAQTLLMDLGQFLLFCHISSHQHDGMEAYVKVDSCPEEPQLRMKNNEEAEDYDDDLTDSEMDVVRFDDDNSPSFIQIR
Chain of A1/A3-C1-C2 heterodimer of factor VIII, plasma-derived (human) (P00451 1709-2351, chain 2 of 2): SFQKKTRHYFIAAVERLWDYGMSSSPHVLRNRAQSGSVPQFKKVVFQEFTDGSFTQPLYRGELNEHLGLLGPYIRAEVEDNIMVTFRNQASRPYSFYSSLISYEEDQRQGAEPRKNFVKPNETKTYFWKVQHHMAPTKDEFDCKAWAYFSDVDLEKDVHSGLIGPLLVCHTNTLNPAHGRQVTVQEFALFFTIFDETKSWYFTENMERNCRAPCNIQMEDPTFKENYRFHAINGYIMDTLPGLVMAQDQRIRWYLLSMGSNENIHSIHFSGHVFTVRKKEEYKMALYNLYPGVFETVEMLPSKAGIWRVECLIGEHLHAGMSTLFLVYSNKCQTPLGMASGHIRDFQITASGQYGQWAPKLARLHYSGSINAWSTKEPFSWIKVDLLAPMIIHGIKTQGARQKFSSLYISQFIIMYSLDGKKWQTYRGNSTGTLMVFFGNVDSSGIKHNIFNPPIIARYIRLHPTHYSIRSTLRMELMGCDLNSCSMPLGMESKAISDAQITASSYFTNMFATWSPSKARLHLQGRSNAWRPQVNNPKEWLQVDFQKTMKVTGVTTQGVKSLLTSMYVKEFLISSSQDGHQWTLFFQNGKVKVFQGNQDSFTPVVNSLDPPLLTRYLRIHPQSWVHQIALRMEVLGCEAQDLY
In assay [3] the target is low-density lipoprotein receptor-related protein (LRP), purified (human) (UniProt Q07954). Description: SPR, BIAcore 3000.
For assay [4] the target is unchanged. Kind of assay: homologous displacement on LRP-coated wells.
The target is the same in assay [5]. Kind of assay: homologous displacement of ^125I-fVIII (1 nM) by unlabeled fVIII on LRP-coated wells, LIGAND fit.
The target is the same in assay [6]. Kind of assay: homologous ligand displacement: 125I-fVIII (1 nM) on LRP-coated microtiter wells, competitor unlabeled fVIII.

In assay [1], “recombinant A2 mutant #5 (Lys-466 to Ala) (from UniProt P00451 392-759)” gave a pKd of 6.22. The Activity of reconstituted FVIIIa (% of wt activity) (% of wt activity) in assay [2] turned out to be 130. Moreover, the fold decrease of affinity against wt-A2 in assay [3] was determined as 28 fold.
On to “recombinant A2 mutant #4 (Lys-380 to Ala) (from UniProt P00451 392-759)”, for which the negative-log Kd (pKd) in assay [1] is 7.33. For the same substance, the Activity of reconstituted FVIIIa (% of wt activity) (% of wt activity) in assay [2] turned out to be 291.
Regarding “recombinant A2 mutant #7 (Arg-484 to Ala) (from UniProt P00451 392-759)”, the pKd in assay [1] was 6.49. Besides, the Activity of reconstituted FVIIIa (% of wt activity) (% of wt activity) in assay [2] is 64.9. This substance also gave a fold decrease of affinity against wt-A2 in assay [3] of 15 fold.
In turn, “factor VIII purified from therapeutic concentrates (Method M, American Red Cross), P00451 20-1667; P00451 1668-2351” registered a percent of binding competed by an excess of unlabeled fVIII in assay [4] above 90%. The same substance gave a pKd in assay [5] of 6.94. Moreover, the IC50 (read off the curve) in assay [6] stood at 100 nM.
In assay [1], “recombinant A2 mutant #3 (His-378 to Ala) (from UniProt P00451 392-759)” gave a pKd of 7.72. Further, the Activity of reconstituted FVIIIa (% of wt activity) (% of wt activity) in assay [2] was found to be 417.
In the case of “recombinant A2 mutant #2 (Lys-377 to Ala) (from UniProt P00451 392-759)”, the pKd in assay [1] is 7.74. The Activity of reconstituted FVIIIa (% of wt activity) (% of wt activity) in assay [2] stood at 365.
Turning to “recombinant A2 mutant #6 (Arg-471 to Ala) (from UniProt P00451 392-759)”, in assay [1], the pKd was 6.40. The same substance came in with an Activity of reconstituted FVIIIa (% of wt activity) (% of wt activity) in assay [2] of 34.6. The fold decrease of affinity against wt-A2 in assay [3] amounted to 19 fold.

As usually defined, the pKd is the negative decadic logarithm of the Kd, by convention in mol/L. A lower pKd goes with a large Kd.
